Source: patent US9500651B2, “Method for identifying novel minor histocompatibility antigens” (UNIVERSITÉ DE MONTRÉAL, priority 2012, dated 2016)

How the values were obtained:
Test in all cases: MHC class I-associated peptides eluted from B-LCLs by mild acid treatment and identified by LC-MS/MS with personalized database
Format in all cases: cell-based
Settings in all cases: EBV-transformed B-LCLs of 2 HLA-identical siblings
HLA-B*0801 = HLA-B*0801 (Homo sapiens, UniProt P01889, A93T/A95T/D138N/E176V/E187T/K202T/Q94N/R180D/S35A/V36M/Y33D/Y91F)
Protocol: (§1) Peripheral blood mononuclear cells (PBMCs) were isolated from blood samples of 2 HLA-identical siblings. Epstein-Barr virus (EBV)-transformed B lymphoblastoid cell lines (B-LCLs) were derived from PBMCs with Ficoll-Paque™ Plus (Amersham) as described (Tosato and Cohen, 2007). Established B-LCLs were maintained in RPMI 1640 medium supplemented with 10% fetal bovine serum, 25 mM of HEPES, 2 mM L-glutamine and penicillin-streptomycin (all from Invitrogen).
(§2) Three biological replicates of 4×10^8 exponentially growing B-LCLs were prepared from each subject. MHC class I-associated peptides were released by mild acid treatment, pretreated by desalting with an HLB cartridge, filtered with a 3000 Da cut-off column and separated by cation exchange chromatography (SCX) using an off-line 1100 series binary LC system (Agilent Technologies) as previously described (Fortier et al., 2008). Peptides were loaded at 8 uL/min on a homemade strong cation exchange (SCX) column (0.3 mm internal diameter×50 mm length) packed with SCX bulk material (Polysulfoethyl A™, PolyLC). Peptides were separated into five fractions using a linear gradient of 0-25% B in 25 min (solvent A: 5 mM ammonium formate, 15% acetonitrile, ACN, pH 3.0; solvent B: 2 M ammonium formate, 15% ACN, pH 3.0) and brought to dryness using a Speedvac.
(§3) MHC class I-associated peptide fractions were resuspended in 2% aqueous ACN (0.2% formic acid) and analyzed by LC-MS/MS using an Eksigent™ LC system coupled to a LTQ-Orbitrap™ mass spectrometer (Thermo Electron) (Fortier et al., 2008; de Verteuil et al., 2010; Caron et al., 2011). Peptides were separated in a custom C18 reversed phase column (150 μm i.d.×100 mm, Jupiter Proteo™ 4 μm, Phenomenex) at a flow rate of 600 nL/min using a linear gradient of 3-60% aqueous ACN (0.2% formic acid) in 69 mins. Full mass spectra were acquired with the Orbitrap™ analyzer operated at a resolving power of 60 000 (at m/z 400) and collision-activated dissociation tandem mass spectra were acquired in data-dependent mode with the linear ion trap analyzer. Mass calibration used an internal lock mass (protonated (Si(CH3)2O))6; m/z 445.120029) and mass accuracy of peptide measurements was within 5 ppm.
(§4) Mass spectra were analyzed using Xcalibur™ software and peak lists were generated using Mascot™ distiller version 2.1.1 (Matrix Science, http://www.matrixscience.com). Database searches were performed against a non-redundant human Uniprot database (containing 110,361 sequences, released on 28, Jul. 2011) (version 101 of the UniProt Gene Ontology Annotation available from the European Bioinformatics Institute (EBI), an academic research institute located on the Wellcome Trust Genome Campus in Hinxton near Cambridge (UK), part of the European Molecular Biology Laboratory; http://www.ebi.ac.uk/Informationt; Magrane et al., Database Vol. 2011, Article ID bar009; The UniProt Consortium, Nucleic Acids Res. 2011 January; 39(Database issue): D214-D219) and databases specific for each individual (see “in silico translated transcriptome” section) using Mascot (version 2.3, Matrix Science). A Mascot search against a concatenated target/decoy database consisting of combined forward and reverse versions of the Ensembl human reference genome database and of each subject-specific database. Non-redundant peptide sequences with a cutoff score threshold above 15 were selected. The tolerances for precursor and fragment mass values were set to 0.02 and 0.05 Dalton, respectively. Searches were performed without enzyme specificity and a variable modification for oxidation (Met) and deamidation (Asn, Gln). Raw data files were converted to peptide maps comprising m/z values, charge state, retention time and intensity for all detected ions above a threshold of 8000 counts using in-house software (Proteoprofile) (Fortier et al., 2008; de Verteuil et al., 2010; Caron et al., 2011). […]

HLA-A*0301 = molecular target: T1, HLA-A*0301 (Homo sapiens, UniProt P04439)
T1 construct: endogenous in cells; host or cells: EBV-transformed B lymphoblastoid cell lines (B-LCLs) from PBMCs of 2 HLA-identical siblings
Protocol: as §1, §2, §3, §4

HLA-B*4403 = HLA-B*4403 (Homo sapiens, UniProt P01889, A223V/A65T/A93T/A95T/D201E/D98Y/E176V/E187L/E204Q/E69K/G107R/H137Y/K202T/L105A/L119I/N104T/N87E/Q56L/Q94N/R106L/R155S/R180L/S101N/S121R/S35A/S48T/T118I/V36M/W191S/Y140D/Y91S)
Protocol: as §1, §2, §3, §4

| Sequence | presentation at the cell surface by MHC class I allele (HLA-A*0301) | further results |
| --- | --- | --- |
| ELQEKFLSL (listed as Homo sapiens) [MiHA peptide from CENPF, rs3795517, leucine allele] | – | presentation at the cell surface by MHC class I allele (HLA-B*0801): presented at the cell surface |
| AMYDKGPFWSK (listed as Homo sapiens) [MiHA peptide from NQO1, rs1131341, tryptophan allele] | presented at the cell surface | – |
| QELDRVFQKL (listed as Homo sapiens) [MiHA peptide from ZWINT, rs2241666, arginine allele] | – | presentation at the cell surface by MHC class I allele (HLA-B*4403): presented at the cell surface |
| ELQEKFSSL (listed as Homo sapiens) [MiHA peptide from CENPF, rs3795517, serine allele] | – | presentation at the cell surface by MHC class I allele (HLA-B*0801): presented at the cell surface |
| QELDGVFQKL (listed as Homo sapiens) [MiHA peptide from ZWINT, rs2241666, glycine allele] | – | presentation at the cell surface by MHC class I allele (HLA-B*4403): presented at the cell surface |
| SVLKPGNSK (listed as Homo sapiens) [MiHA peptide from ELF1, rs1056820, serine allele] | presented at the cell surface | – |
| RVSLPTSPR (listed as Homo sapiens) [MiHA peptide from KIAA0226L, rs1408184, arginine allele] | presented at the cell surface | – |
| VMGNPGTFK (listed as Homo sapiens) [MiHA peptide from RMDN1, rs6980476, lysine allele] | presented at the cell surface | – |
| VMGNPGTFN (listed as Homo sapiens) [MiHA peptide from RMDN1, rs6980476, asparagine allele] | presented at the cell surface | – |
| SLFFRKVAF (listed as Homo sapiens) [MiHA peptide from MTCH2, rs1064608, alanine allele] | – | presentation at the cell surface by MHC class I allele (HLA-B*0801): presented at the cell surface |
| AMYDKGPFRSK (listed as Homo sapiens) [MiHA peptide from NQO1, rs1131341, arginine allele] | presented at the cell surface | – |
| RVSLPTSPG (listed as Homo sapiens) [MiHA peptide from KIAA0226L, rs1408184, glycine allele] | presented at the cell surface | – |
| SLFFRKVPF (listed as Homo sapiens) [MiHA peptide from MTCH2, rs1064608, proline allele] | – | presentation at the cell surface by MHC class I allele (HLA-B*0801): presented at the cell surface |
| TVLKPGNSK (listed as Homo sapiens) [MiHA peptide from ELF1, rs1056820, threonine allele] | presented at the cell surface | – |
